Four compounds from publication PMC8836279, “The T850D Phosphomimetic Mutation in the Androgen Receptor Ligand Binding Domain Enhances Recruitment at Activation Function 2” (International Journal of Molecular Sciences, 2022) can be followed below.

Residue numbers refer to the chain shown, from its start. Square brackets hold non-standard residues; d marks the D form. pT = C[C@@H](OP(=O)(O)O)[C@H](N)C(=O)O

The target of one series is T1, AR WT (Homo sapiens, UniProt P10275).
T1 construct: Cells expressing a flag-tagged AR full-length were used as control; expressed in transfected cells
T1 sequence (P10275 1-920): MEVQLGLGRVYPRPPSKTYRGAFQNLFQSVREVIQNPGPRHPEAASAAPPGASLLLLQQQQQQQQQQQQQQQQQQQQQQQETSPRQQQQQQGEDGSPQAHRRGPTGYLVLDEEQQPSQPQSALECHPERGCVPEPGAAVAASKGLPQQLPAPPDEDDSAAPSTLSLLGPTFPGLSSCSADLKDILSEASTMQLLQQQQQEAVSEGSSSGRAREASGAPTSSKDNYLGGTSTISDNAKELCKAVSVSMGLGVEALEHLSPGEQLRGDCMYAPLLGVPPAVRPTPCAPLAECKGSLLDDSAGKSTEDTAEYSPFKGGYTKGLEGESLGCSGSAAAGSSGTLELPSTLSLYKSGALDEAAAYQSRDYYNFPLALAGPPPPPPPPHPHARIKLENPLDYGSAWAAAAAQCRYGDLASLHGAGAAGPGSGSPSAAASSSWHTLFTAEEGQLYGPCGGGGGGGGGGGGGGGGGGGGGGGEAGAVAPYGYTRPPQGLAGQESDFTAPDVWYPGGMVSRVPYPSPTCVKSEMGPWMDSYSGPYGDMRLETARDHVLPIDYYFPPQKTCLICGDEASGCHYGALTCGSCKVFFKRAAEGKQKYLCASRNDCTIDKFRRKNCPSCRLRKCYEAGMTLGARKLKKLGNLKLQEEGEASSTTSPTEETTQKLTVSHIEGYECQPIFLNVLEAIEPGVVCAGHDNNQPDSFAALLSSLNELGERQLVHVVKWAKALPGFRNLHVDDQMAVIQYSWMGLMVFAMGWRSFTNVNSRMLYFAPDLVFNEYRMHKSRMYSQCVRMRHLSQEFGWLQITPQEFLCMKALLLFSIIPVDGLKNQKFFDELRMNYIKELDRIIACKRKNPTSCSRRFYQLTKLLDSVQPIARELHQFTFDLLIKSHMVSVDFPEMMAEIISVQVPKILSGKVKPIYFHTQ
Briefly: Whole-cell competition ligand binding assay in COS-7 cells. As to conditions: mean ± SE. The method, then: (§1) After addition of Ultima Gold XR (Perkin Elmer, Waltham, MA, USA), cell lysates were counted for ^3H-signal. Data were normalized for the average cpm of all data points per independent experiment. Mean and SEM of the specific binding (total binding—non-specific binding) is given (n ≥ 3). Via non-linear regression analysis using the One-site binding-equation of GraphPad Prism 9 (version 9.3.1), the KD and Bmax were calculated. Ratio-paired T-test with * = p ≤ 0.05, ** = p < 0.01.

In the next series the target is T2, AR T850A (Homo sapiens, UniProt P10275, T851A).
T2 construct: Cells expressing a flag-tagged AR full-length were used as control; expressed in transfected cells
T2 sequence (P10275 1-920 T851A): T1 sequence (P10275 1-920) with T851A
The description is as above. The conditions noted are these: mean ± SE. The method, then:
as §1

The target in a further series is T3, AR T850D (Homo sapiens, UniProt P10275, T851D).
T3 construct: Cells expressing a flag-tagged AR full-length were used as control; expressed in transfected cells
T3 sequence (P10275 1-920 T851D): T1 sequence (P10275 1-920) with T851D
Described as above. The method, then:
as §1

Series [1] is described as follows: Circular dichroism spectroscopy and thermal denaturation of H10 peptides. It counts as physicochemical. As to conditions: for melting temperature higher than the WT peptide: 25 µM peptide in 20% TFE-TRIS buffer pH 7.5, at all wave lengths (208, 211, 215, 222 nm); for reduction (vs. WT peptide) of the CD minimum at 208 nm / reduction (vs. WT peptide) of the CD minimum at 222 nm: 50 µM peptide in 20% TFE-TRIS buffer pH 7.5, 4 °C. The method, then:
Peptides (AR WT 845–868: Acetyl-[…]-amide) with T850D or with phosphorylated T850 (Genscript, Piscataway, NJ, USA) were compared to WT peptide through their CD spectra. […] The Mean Residue-Molar Ellipticity (MR-ME) was calculated as MR-ME = MRW × θ/(10 × d × c) with MRW (Mean Residue Weight) = peptide weight/(n − 1) and n = […]; with θ as the observed ellipticity in millidegrees; […]. The unfolded fraction (Funfolded) of the peptide was calculated from the Ellipticity data using equation: Funfolded = (θt − θfolded)/(θunfolded − θfolded) with θt as the Ellipticity at each temperature, θfolded as the Elllipticity of the peptide in folded state and θunfolded as the Ellipticity of the peptide in unfolded state. Melting temperature (Tm) of AR 845–868 peptides were calculated through nonlinear regression analysis of the Sigmoidal dose response curves (variable slope) using GraphPad Prism 9, version 9.3.1. The temperature corresponding to an unfolded fraction of 0.5 is the Tm. Mean melting temperatures with 95% CI of 2 independent experiments are given. Helix content was calculated from the molar ellipticity [θ] at 222 nm using the following equation, % helix = 100 ([θ]222/(−39,500(1 − 2.57/n))), where n is the number of total peptide bonds and [θ]222 has been corrected for background.
Background: Circular dichroism is the unequal absorption of left and right circularly polarised light.

The test system of another series is LBD WT. The conditions noted are these: split TEV assay, Hep3B.

On to `C[C@@H]1CC2=CC(=O)CC[C@@H]2[C@H]2CC[C@@]3(C)[C@@H](CC[C@]3(C)O)[C@@H]21` [^3H-Mib], for which the Bmax is 5182 (±602) cpm on AR WT, 5514 (±561) cpm on AR T850A and 7902 (±773) ** cpm at AR T850D (mean ± SE). In addition, the “increase of maximal binding, AR T850D vs. AR WT” value at AR T850D is reported as “approximately 50%”.

Consider “T850Ph peptide: H10 peptide AR 845–868 (WT: Acetyl-KRKNPTSCSRRFYQLTKLLDSVQP-amide) with phosphorylated T850 (Ac-KRKNP[pT]SCSRRFYQLTKLLDSVQP-NH2; SMILES CC(=O)N[C@@H](CCCCN)C(=O)N[C@@H](CCCNC(=N)N)C(=O)N[C@@H](CCCCN)C(=O)N[C@@H](CC(N)=O)C(=O)N1CCC[C@H]1C(=O)N[C@H](C(=O)N[C@@H](CO)C(=O)N[C@@H](CS)C(=O)N[C@@H](CO)C(=O)N[C@@H](CCCNC(=N)N)C(=O)N[C@@H](CCCNC(=N)N)C(=O)N[C@@H](Cc1ccccc1)C(=O)N[C@@H](Cc1ccc(O)cc1)C(=O)N[C@@H](CCC(N)=O)C(=O)N[C@@H](CC(C)C)C(=O)N[C@H](C(=O)N[C@@H](CCCCN)C(=O)N[C@@H](CC(C)C)C(=O)N[C@@H](CC(C)C)C(=O)N[C@@H](CC(=O)O)C(=O)N[C@@H](CO)C(=O)N[C@H](C(=O)N[C@@H](CCC(N)=O)C(=O)N1CCC[C@H]1C(N)=O)C(C)C)[C@@H](C)O)[C@@H](C)OP(=O)(O)O)”, for which, in series [1], the “melting temperature higher than the WT peptide” value was roughly 27 °C, the “reduction (vs. WT peptide) of the CD minimum at 208 nm” value came to 38% and the “reduction (vs. WT peptide) of the CD minimum at 222 nm” value stood at 51%.

With `C[C@]12CCC(=O)C[C@@H]1CC[C@@H]1[C@@H]2CC[C@]2(C)[C@@H](O)CC[C@@H]12` [DHT, dihydrotestosterone], the “EC50 of WT LBD compared to EC50 of T850D LBD” value in the series on LBD WT worked out at 10 fold.

Take “T850D peptide: H10 peptide AR 845–868 (WT: Acetyl-KRKNPTSCSRRFYQLTKLLDSVQP-amide) with T850D (Ac-KRKNPDSCSRRFYQLTKLLDSVQP-NH2)”: in series [1], the “melting temperature higher than the WT peptide” value is “approximately 13 °C”, the “reduction (vs. WT peptide) of the CD minimum at 208 nm” value was 30% and the “reduction (vs. WT peptide) of the CD minimum at 222 nm” value is 43%.
